From patent US20250197505A1 (DREN BIO, published 2025)

Molecular target: T1, cynomolgus CD94 expressed on HEK293 cells (cynomolgus monkey, UniProt Q68VD4 1-179)
T1 construct: also called cyno-CD94; cynomolgus monkey CD94
T1 sequence: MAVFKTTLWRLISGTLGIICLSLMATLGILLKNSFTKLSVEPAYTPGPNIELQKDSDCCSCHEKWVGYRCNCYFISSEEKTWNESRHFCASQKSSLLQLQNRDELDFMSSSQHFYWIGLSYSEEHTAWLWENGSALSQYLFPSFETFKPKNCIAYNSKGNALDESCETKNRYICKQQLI
Experiment: flow cytometry, cynomolgus CD94-expressing HEK293 cells
Source text: Anti-CD94 hybridoma supernatants were screened on cynomolgus CD94-expressing HEK293 cells by flow cytometry for cross-reactivity to cynomolgus CD94. HP-3D9 is a commercial anti-CD94 antibody that was used as a negative control. Mouse IgG1, IgG2a, IgG2b and IgG3 were used as negative controls. […] Commercially available anti-CD94 antibodies were used to test cynomolgus cross-reactivity. 18H3 was used as a positive control. The MFI of each antibody was normalized to the MFI of its respective isotype.
Cynomolgus CD94-expressing HEK293 cells were seeded in 96-well plates at a density of 100,000 cells per well, incubated with cell viability dye (Thermo Fisher) for 30 minutes on ice and protected from light. The cells were washed once with FACS buffer (PBS with 2% IgG low FBS). Hybridoma supernatants, anti-CD94 antibodies and isotype controls were incubated with cells for 30 minutes on ice and protected from light. […] After incubation, the cells received a final wash in FACS buffer before quantification on the Cytoflex (Beckman Coulter). All data acquisition and fluorescence compensation were performed using CytoFlex (Beckman Coulter, Atlanta, GA). […] CD94 expression was then quantified on this population. […]

- binding result: binds
B1: anti-CD94 antibody clone 18H3 (antibody, V domains shown)
VH: EVQLVQSGAEVKKPGESLKISCKGSGYRFTSYWIGWVRQMPGKGLEWMGIIYPGDSDTRYSPSFQGQVIISADKSITTAFLQWSSLKASDTAMYYCARPFDYGGSPGYFDYWGQGTLVTVSS
VL: DIQMTQSPSTLSASVGDRVTITCRASQSIRSWLAWYQQKPGKAPKLLIYKASSLESGVPSRFSGSGSGTEFTLTISSLQPDDFATYYCQQYNTFWTFGQGTKVEIK
notes: also called 18H3-AF647
